Assay results taken from paper PMC2132610 (The Journal of Cell Biology, 1997).

B1: wild-type alcohol oxidase of Pichia pastoris (AOX-WT) (enzyme, P. pastoris, UniProt F2QY27 1-663, looked up)
chain: MAIPEEFDILVLGGGSSGSCIAGRLANLDHSLKVGLIEAGENNLNNPWVYLPGIYPRNMKLDSKTASFYTSNPSPHLNGRRAIVPCANVLGGGSSINFMMYTRGSASDYDDFQAEGWKTKDLLPLMKKTETYQRACNNPDIHGFEGPIKVSFGNYTYPVCQDFLRASESQGIPYVDDLEDLVTAHGAEHWLKWINRDTGRRSDSAHAFVHSTMRNHDNLYLICNTKVDKIIVEDGRAAAVRTVPSKPLNPKKPSHKIYRARKQIVLSCGTISSPLVLQRSGFGDPIKLRAAGVKPLVNLPGVGRNFQDHYCFFSPYRIKPQYESFDDFVRGDAEIQKRVFDQWYANGTGPLATNGIEAGVKIRPTPEELSQMDESFQEGYREYFEDKPDKPVMHYSIIAGFFGDHTKIPPGKYMTMFHFLEYPFSRGSIHITSPDPYAAPDFDPGFMNDERDMAPMVWAYKKSRETARRMDHFAGEVTSHHPLFPYSSEARALEMDLETSNAYGGPLNLSAGLAHGSWTQPLKKPTAKNEGHVTSNQVELHPDIEYDEEDDKAIENYIREHTETTWHCLGTCSIGPREGSKIVKWGGVLDHRSNVYGVKGLKVGDLSVCPDNVGCNTYTTALLIGEKTATLVGEDLGYSGEALDMTVPQFKLGTYEKTGLARF
B2: AOX with the COOH-terminal LARF replaced by RSC (AOX–RSC, pHWO41) (enzyme, P. pastoris)
chain: MAIPEEFDILVLGGGSSGSCIAGRLANLDHSLKVGLIEAGENNLNNPWVYLPGIYPRNMKLDSKTASFYTSNPSPHLNGRRAIVPCANVLGGGSSINFMMYTRGSASDYDDFQAEGWKTKDLLPLMKKTETYQRACNNPDIHGFEGPIKVSFGNYTYPVCQDFLRASESQGIPYVDDLEDLVTAHGAEHWLKWINRDTGRRSDSAHAFVHSTMRNHDNLYLICNTKVDKIIVEDGRAAAVRTVPSKPLNPKKPSHKIYRARKQIVLSCGTISSPLVLQRSGFGDPIKLRAAGVKPLVNLPGVGRNFQDHYCFFSPYRIKPQYESFDDFVRGDAEIQKRVFDQWYANGTGPLATNGIEAGVKIRPTPEELSQMDESFQEGYREYFEDKPDKPVMHYSIIAGFFGDHTKIPPGKYMTMFHFLEYPFSRGSIHITSPDPYAAPDFDPGFMNDERDMAPMVWAYKKSRETARRMDHFAGEVTSHHPLFPYSSEARALEMDLETSNAYGGPLNLSAGLAHGSWTQPLKKPTAKNEGHVTSNQVELHPDIEYDEEDDKAIENYIREHTETTWHCLGTCSIGPREGSKIVKWGGVLDHRSNVYGVKGLKVGDLSVCPDNVGCNTYTTALLIGEKTATLVGEDLGYSGEALDMTVPQFKLGTYEKTGRSC

Target: the molecule itself
Test: sucrose velocity gradient sedimentation

Protein | stoichiometry N
B1 | 8
B2 | 8
